Results on 132 substances are retold here after the supplement of paper PMC12042874.

± gives the uncertainty stated by the source.

The series in a line: amyloid nucleation score (Sup35N fusion, yeast selection) (log enrichment); library NNK3; higher = more nucleation; inactive = no reads after selection. The procedure, abridged: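 The nucleation score equals the log enrichment of output over input reads from DiMSum, centred on the mode score of non-aggregating sequences. It was computed only for sequences with 100 or more input reads. The reads came from Illumina sequencing of plasmid inserts from psi-negative yeast expressing Sup35N fused to peptides of 20 random codons, induced with 100 μM copper sulfate for 24 hours and grown 7 days at 30°C without adenine and uracil.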
Consider RFSYVVTRSG, for which the amyloid nucleation score entry was “inactive”.
For SSDECYSNHCIWCVKQ the value was 3.16 ± 0.061; for GLNMVWFVHLSVNV, “inactive”.
Turning to KLTGQDLVVGNAFATVVYVE, the amyloid nucleation score result is “inactive”.
For NRVFPANLSSLSSCSTFTLW the value was “inactive”.
For RLTWESTMYVKIVGMSYAFG the value was -0.241 ± 0.36; for KLSDDRKTRCNYYFMGLVVV, “inactive”; for LWLCSYNATGSFVAKD, -0.246 ± 0.5.
LFLRPNANRYVH: the amyloid nucleation score entry was “inactive”.
For the substance LGLDTSSSVYCQSCGVRFSV, the amyloid nucleation score entry is “inactive”.
Take GSSVCAR: the amyloid nucleation score entry was “inactive”.
For IRSPWTSRAVCGGADV the value was “inactive”.
Substance ASEFKTSWWNV came in with an amyloid nucleation score of -0.549 ± 0.68.
For CFMTS the value was “inactive”; for IYHSYNESVCTYSNHPSRM, “inactive”.
For PLRVRNQYRRLMISANQPDW the value was “inactive”.
For NCKALGFNWALMGKSMSLRG the value was “inactive”; for SLGEKMNVASLQAVMSC, “inactive”.
For the substance LFVFIYSVSGLLDDGVGLGG, the amyloid nucleation score entry is “inactive”.
For PCFLMGPVIPIVFALYKILV the value was “inactive”.
For FSIPCDFDDNFATQELS the value was “inactive”.
On to SCKVTKHGYVKEDFIGLCSY, for which the amyloid nucleation score result was “inactive”.
For VRHGCG the value was “inactive”; for ATRSLSDRPLEYCNNVDRKK, “inactive”.
GTTYTAHYAWSTVGDIWSLH: the amyloid nucleation score entry was “inactive”.
PGSFNLILVTYIGLLQKLLH had an amyloid nucleation score of 0.993 ± 0.16.
VLWPADFGCPARVQESGSSQ had an amyloid nucleation score of -0.387 ± 1.5.
On to YVKIDSRFHGVSHFRFHTAY, for which the amyloid nucleation score result is “inactive”.
With CKKGRLVGRSRCLVCWMCCM, the amyloid nucleation score was -0.155 ± 0.96.
Consider NKLIRSEVSLLAMCMCSGNG, for which the amyloid nucleation score entry is “inactive”.
For YWKFWIKSDVYCRSISGWCR the value was “inactive”; for FDNKQGSFLKVLTFNFARVA, “inactive”.
For ISILDLSSTF the value was “inactive”; for ASHDKGFYLGSCTYLYGLRL, “inactive”.
For FFALPDLALYNFFFCNPHYL the value was 2.27 ± 0.064; for GNFRSELITMVSCTMECRFL, “inactive”; for HGHDNVEDTCLRFSPAGLST, “inactive”.
With RNKLFLINWLFYNCMTWAFH, the amyloid nucleation score result was “inactive”.
For TSFGPKLPTGVFVCEGSNDR the value was “inactive”; for VVMTDHINIKGIVEPTVTTF, “inactive”.
For ISDRFQAESCSRCSLVSSMF, the amyloid nucleation score result was “inactive”.
As for GSSRPVVSLTSDLRRCVGKD, the amyloid nucleation score result is “inactive”.
For WRVADTTEARMTGWGVWQWY the value was “inactive”; for KMSAPWEGQCECCGCDF, “inactive”.
For VDMSNFRANVVTHSPIGGLR the value was “inactive”.
Turning to DQYLTVSHKTTTFRMCPQSG, the amyloid nucleation score result is “inactive”.
For SLEGTYGHLRQELTTSPNAH the value was 0.907 ± 0.17.
With YMGILCMGLLNSKW, the amyloid nucleation score is -0.606 ± 0.76.
For CGRRYGTGAPRCL the value was “inactive”.
For QATVISRVYNWAGLSDCVVV the value was 0.425 ± 0.47; for TLILTDRTWLNDLSSLLIQL, “inactive”.
In the case of SVGRSST, the amyloid nucleation score entry is “inactive”.
In the case of TPSRLPQAACWQ, the amyloid nucleation score entry was “inactive”.
Consider RPAWTRTSTVDKLQIELRYE, for which the amyloid nucleation score result is “inactive”.
For NPLYVFDRI the value was -0.71 ± 0.53; for LVFLN, “inactive”; for WKVMLRLALRMQCTHLAVCW, “inactive”.
For the substance VRRSMATLFWCWDYTNLDCI, the amyloid nucleation score entry was “inactive”.
For DCDRILLV the value was “inactive”.
Consider IWQCRYLRMGQ, for which the amyloid nucleation score result was “inactive”.
For FLTVIGLYNLSDGPCCK the value was 1.79 ± 0.06.
For VRAGSLYHCVRNPISRGLAV the value was -0.57 ± 1.8; for YRKMRAEEDKWMVWVYSRRC, “inactive”.
For NISLN the value was “inactive”; for YSGTRVPR, 0.471 ± 0.29; for KVFNTL, “inactive”.
The substance AYPARLTIASEFKIMAHYGM gave an amyloid nucleation score of 1.36 ± 0.15.
Take TNSFAYNWLNAW: the amyloid nucleation score entry is “inactive”.
Turning to RYVAVCSK, the amyloid nucleation score result was “inactive”.
Consider LPLPFFQRVNNGKSVLGVHL, for which the amyloid nucleation score entry is “inactive”.
For SLSILT the value was “inactive”; for NRFVIIFSCLCFCPQSDMEL, 2.37 ± 0.083; for HLLPLYTKSIVGYTTNAIPN, “inactive”.
Regarding SFLCLISIHCTDNDNGMHNC, the amyloid nucleation score entry was “inactive”.
Regarding NGHWL, the amyloid nucleation score entry was “inactive”.
For KRDHMVSLGYSLGSKQRGVG the value was “inactive”.
For LADNIRFISN the value was “inactive”; for TGFLSIHLSWTYTCYMIVER, “inactive”.
With VFFLNIAIIRVECSYPLVRK, the amyloid nucleation score is -0.223 ± 0.75.
For NFFCSA the value was “inactive”; for GVVSMVYINKWTRFWVPRPS, “inactive”.
With TVDVIRYISPDLDKTSYEWK, the amyloid nucleation score entry was “inactive”.
As to LLGSFEGLIALYSGGWMAYR, the amyloid nucleation score is -0.108 ± 0.77.
Turning to SIGTKLASCLYLKR, the amyloid nucleation score result was “inactive”.
For AWYSDCRCVKPHVGRGNWCM the value was “inactive”.
For LYSGVIAHCIVIPIELFSVS the value was “inactive”; for YVVVCSCAWS, 2.63 ± 0.074.
For TQRTGY the value was “inactive”; for GLPNLASYSPPPINAKYIGD, “inactive”; for IGRMKRSIGRCDPVWWNWVQ, “inactive”.
The substance YINRKLRDACRRYVFGW had an amyloid nucleation score of 0.05 ± 0.89.
For RIFSFT the value was “inactive”; for FVLICGYFIFIWTVSFNCYW, “inactive”; for TSQGIYHVVCCSSSEFRTLG, 2.48 ± 0.055.
As to YMFRFGSTDCEAYV, the amyloid nucleation score result is “inactive”.
Turning to EVLYR, the amyloid nucleation score result is “inactive”.
For DTRGTARKPKSLSTRLEIRV, the amyloid nucleation score result is “inactive”.
As for RFSSSSQPFYSFAIVRR, the amyloid nucleation score entry is “inactive”.
In the case of EFATLAEPDVIYYFLVFYCS, the amyloid nucleation score entry was “inactive”.
With NYWEIEYGVAGCSFLEGMRH, the amyloid nucleation score result is “inactive”.
For CNVNTLIFGRESNSSEHKHW the value was 1.83 ± 0.081; for TLTGVPAGSTT, “inactive”; for VCVNSLPYLICDIRVIIDRG, 1.11 ± 0.13.
In the case of RCWNKVFLSYQTELI, the amyloid nucleation score entry is “inactive”.
For KLCYTASEWSGNSLNVVRNK, the amyloid nucleation score result is “inactive”.
For NLDLSGGESASWRNFSFFLK the value was “inactive”.
In turn, ISPAESFPSSPERIHIVD yielded an amyloid nucleation score of -0.789 ± 0.9.
In the case of GPMNLMRSVRYALSRSYLLL, the amyloid nucleation score result was “inactive”.
For LSLSSFCF the value was 1.3 ± 0.17; for VWFLLSILPHLTKSVSWGNT, “inactive”; for AFYFNEMYRLVLMGTM, “inactive”.
For MPYDFPVVHNIDFFG the value was “inactive”.
With RCRCTFYCFRVL, the amyloid nucleation score entry was “inactive”.
For SPRRH the value was “inactive”.
Regarding VMKPNIEFGN, the amyloid nucleation score result is “inactive”.
For DYIRRWLVYAYDKVFCRLTV the value was “inactive”.
For ASNEERLLFKCLLKV the value was -0.411 ± 0.73.
For GCDILQFRHCF the value was “inactive”; for YNDDKYCFDMNCMSPRYRGD, -0.191 ± 0.4.
In turn, RITLSIDLLSSEYNRIAPRR registered an amyloid nucleation score of 1.82 ± 0.089.
In the case of HVYMGSFVPR, the amyloid nucleation score result was “inactive”.
With VDVAVFLEMLYCWCRDGFTR, the amyloid nucleation score was 1.79 ± 0.1.
For FMGGIFAVFTRILVHSIWYS the value was “inactive”; for CHSFIMIYVVMMDIS, 0.103 ± 0.55.
For SIQKSWDASGSLIYS, the amyloid nucleation score result was “inactive”.
With YLGVSILVSSYYWVRVGTGR, the amyloid nucleation score entry was “inactive”.
For VQVLYVICLSSSMLYRLVVR the value was “inactive”; for DVYSYKFDR, “inactive”; for WFSNWYYVARDDYLISGREE, “inactive”.
For YLLDLTTVCAGPWRIPQLMK the value was “inactive”.
The substance CFLGVSNMHIGWFGVR gave an amyloid nucleation score of 0.838 ± 0.12.
For TVLVAGIGCEWSMGESTAMW the value was “inactive”.
